This note sets out measurements from patent publication US9296786B2, “Shortened secreted polypeptides” (TWO TO BIOTECH LTD., priority 2009, dated 2016).

A short description of assay [1]: Effect of PRT6 administration on blood serum testosterone level (R&D Systems Testosterone Immunoassay). The assay is classed as in vivo, Balb/C mice. How it is done: Two groups of Balb/C mice were used: • 3-4 week-old male Balb/C—Negative control for testosterone—18 mice • 7-8 week-old male Balb/C mice—18 mice
Each group was divided into 3 sub-groups (6 mice each). Each group was injected every day for a 4 day-period with 200 μl of one of the following: • 4% DMSO in double-distilled water (DDW) • 0.5 μg/kg of PRT6 (diluted in DDW) • 5 μg/kg of PRT6 (diluted in DDW)
After 4 days, blood serum was extracted from the mice and tested for testosterone levels. Testosterone measurement was done using the R&D Systems Testosterone Immunoassay (R&D Systems Catalog Number KGE010). This assay is based on the competitive binding technique. A monoclonal antibody specific for testosterone binds to the goat anti-mouse antibody coated onto the microplate. Following a wash to remove excess monoclonal antibody, testosterone present in the sample competes with a fixed amount of horseradish peroxidase (HRP)-labeled testosterone for sites on the monoclonal antibody. This is followed by another wash to remove excess conjugate and unbound sample. A substrate solution is added to the wells to determine the bound enzyme activity. Color development is stopped, and absorbance is read at 450 nm. The intensity of the color is inversely proportional to the concentration of testosterone in the sample.

Assay [2] can be described thus: IPGTT in mice treated with streptozotocyn (STZ), after 4-5 weeks of peptide treatment. The assay is classed as in vivo, C57B1/6 mice. The note with it: STZ-treated C57B1/6 male mice; PRT8 100 μg/mice; sbPRT8 20, 100 or 300 μg/mice; 4 or 5 weeks of treatment; sbPRT8 compared with PRT8. The text has this: In the following experiments, a sbPRT8 peptide blocked with an acetyl moiety at the N-terminal end and an amide moiety (NH2) at the C-terminal end has been employed. The effect of sbPRT8 administration on glucose levels was examined and compared to the effect obtained with PRT8 in mice treated with streptozocin (STZ). As known in the art, STZ is a chemical compound that is particularly toxic to the insulin-producing beta cells of the pancreas in mammals. It is used in medicine for treating certain cancers of the Islets of Langerhans and used in medical research to produce an animal model for Type 1 diabetes as well as Type 2 diabetes.
C57B1/6 males mice were purchased from Harlan Laboratories Ltd., Jerusalem, Israel, After 7 days of rest, mice were IP injected with 50 mg/kg STZ for 4 days. Five days after STZ injection, mice were treated as follows: • Group A (control)—100 μg/mice of PRT8 (control) • Group B (treatment)—20 μg/mice of sbPRT8 (treatment 1) • Group C (control)—100 μg/mice of sbPRT8 (treatment 2)
After 5 weeks of treatment mice were starved for food only for 12 h and then were IP injected with […] of glucose solution (IPGTT). The level of glucose in mice blood was measured with Accucheck glucometer (Roche) at t=0, 15, 30, 60, 90 and 120 minutes following glucose injection.
C57B1/6 males mice were purchased from Harlan Laboratories Ltd., Jerusalem, Israel. After 7 days of rest, mice were IP injected with 50 mg/kg STZ for 4 days. Five days after STZ injection, mice were treated as follows: • Group A (control)—100 μg/mice of PRT8 (control) • Group B (treatment)—100 μg/mice of sbPRT8 (treatment 1) • Group C (control)—300 μg/mice of sbPRT8 (treatment 2)
After 4 weeks of treatment mice were starved for food only for 12 h and then were IP injected with […] of glucose solution (IPGTT). The level of glucose in mice blood was measured with Accucheck glucometer (Roche) at t=0, 15, 30, 60, 90 and 120 minutes following glucose injection.

The next assay relates to insulin receptors. Nature of the assay: Levels of insulin receptors in skeletal muscle of mice treated with PRT5. The assay is classed as in vivo. The note with it: data not shown.
A short description of assay [3]: Effect of PRT5 administration on glucose levels after glucose injection in starved mice. The assay is classed as in vivo, C57B1 mice. The settings on record: starting 2 days and up to 4 days after injection; 2 mg/kg glucose after overnight starvation. How it is done: The mice were divided into 4 groups. The first group was starved and checked for blood glucose levels (using an Accu-Chek® Performa device, Roche Diagnostics) one day after injection; the second group—two days after injection, the third group—three days after injection and the fourth group—four days after injection. Starvation was done overnight (the night before glucose injection), and the next day 2 mg/kg of glucose was injected to each mouse. A time course analysis of glucose levels was performed with glucose levels checked at t=0, 30, 90, 120, 150 and 240 minutes.

The nature of assay [4]: Effect of PRT8 administration on glucose levels after glucose injection in starved mice. The settings on record: 1 μg/kg or 10 μg/kg PRT8. The assay is classed as in vivo, C57B1 mice. The procedure: All the mice were injected with PRT8 (or saline) on day 1. The first group was starved on day 2 and checked for blood glucose levels (using an Accu-Chek®Performa device, Roche Diagnostics) on day three. The second group was starved and checked for blood glucose levels three days after injection. Starvation was done overnight (the night before glucose injection), and the next day 2 mg/kg of glucose was injected to each mouse. A time course analysis of glucose levels was performed with glucose levels checked at t=0, 30, 60 and 120 minutes following glucose injection.

Another assay deals with p53. Nature of the assay: Induction of p53 expression by PRT7 (data not shown).

For “PRT6: novel chemokine-like secreted polypeptide from human cDNA libraries, amino acid sequence SEQ. ID. NO. 2 (MPPFSVGLVVVVNVVCLMLYESTTILRLYGIILFMRDLKLEVEDAKITIALALRNS; listed as Homo sapiens)”, the “testosterone levels in blood serum” value in assay [1] (0.5 μg/kg or 5 μg/kg PRT6 daily for 4 days, male Balb/C) is on record as “significant increase”. In addition, the “effect on testosterone levels of 5 μg/kg compared with 0.5 μg/kg” value in assay [1] (5 μg/kg vs 0.5 μg/kg PRT6, daily for 4 days) was “much more pronounced”.
On to “PRT8 C-ter: PRT8 fragment, sequence LLVSLYPA (listed as Homo sapiens)”, for which, in assay [2], the “reduction of blood glucose level (IPGTT)” value is given as “no significant blood glucose reduction”.
As to “PRT8 N-ter: PRT8 fragment, sequence SHLFGSFAWN FLLSS (SHLFGSFAWNFLLSS; listed as Homo sapiens)”, the “reduction of blood glucose level (IPGTT)” value in assay [2] was “no significant blood glucose reduction”.
As to “sbPRT8: shortened C-terminal fragment of PRT8, sequence KPETCPGLLV SLYPA (KPETCPGLLVSLYPA; listed as Homo sapiens)”, the “reduction of blood glucose level (IPGTT)” value in assay [2] is listed as “very significant improvement”.

B1: PRT5: novel chemokine-like secreted polypeptide from human cDNA libraries, amino acid sequence SEQ. ID. NO. 1 (protein, listed as Homo sapiens)
chain: MKPMERWWSRALFTTCPVGPSGCAAGLLWPRNTDARSPLHSQTLWVCSWAALAQKHRCTVTPAQPAP
For the molecule B1, in the assay with insulin receptors, the “levels of insulin receptors in skeletal muscle” value was “capable of increasing the levels of insulin receptors”. Moreover, the “glucose levels compared with mice administered saline” value in assay [3] is given as “significantly lower”.

B2: PRT8: novel chemokine-like secreted polypeptide from human cDNA libraries, amino acid sequence SEQ. ID. NO. 4; full length PRT8 peptide (protein, listed as Homo sapiens)
chain: MLVFLKLWPQCLFFALTFFLRNCIYFKDFLSHLFGSFAWNFLLSSRSMDPTSCWTAPIWRSHRPLNSAPVSESPNYPLFTWSLKPETCPGLLVSLYPA
In the case of B2, the “reduction of blood glucose level (IPGTT)” value in assay [2] is recorded as “significant reduction”. The “glucose levels compared with mice administered saline” value in assay [4] (starting 2 days after administration, 2 mg/kg glucose after overnight starvation) is “significantly lower”. The “glucose-lowering effect three days following injection compared with two days” value in assay [4] (three days following PRT8 injection) is recorded as “more evident”.

B3: PRT7: novel chemokine-like secreted polypeptide from human cDNA libraries, amino acid sequence SEQ. ID. NO. 3 (protein, listed as Homo sapiens)
chain: MGMIVPPSLAAAGGASTTPRLHALRLTSLLHQHLDLCLHPSPLPTPPSAPCLSGLVPPDSSLSVLDTLQV
Consider B3, for which the “expression of p53” value with p53 is reported as “can induce the expression of p53”.
